According to article PMC3527510, “Bin2 Is a Membrane Sculpting N-BAR Protein That Influences Leucocyte Podosomes, Motility and Phagocytosis” (PLoS ONE, 2012):
Residue numbers refer to the chain shown, from its start. Names may count otherwise.

B1: Human Bin2 BAR domain (residues 20-238; Bin2 N-BAR Δ19) (domain or fragment, UniProt Q9UBW5 20-238, looked up)
chain: KFSRAQEKVLQKLGKAVETKDERFEQSASNFYQQQAEGHKLYKDLKNFLSAVKVMHESSKRVSETLQEIYSSEWDGHEELKAIVWNNDLLWEDYEEKLADQAVRTMEIYVAQFSEIKERIAKRGRKLVDYDSARHHLEAVQNAKKKDEAKTAKAEEEFNKAQTVFEDLNQELLEELPILYNSRIGCYVTIFQNISNLRDVFYREMSKLNHNLYEVMSKL
notes: Bridging integrator-2 (Bin2, BRAP1), human, residues 20-238; human Bin2 has 565 amino acids; the final model holds residues 37-238; Cloned into BamH1/Xho1 sites of pGEX-4T-2; also called hBin2 BAR; Bin2-NTΔ19; source: E. coli DH5α, purified (glutathione sepharose, thrombin cleavage, HiTrap Q, gel filtration)
B2: Human α-PIX SH3 domain (amino acids 160-222) (domain or fragment, UniProt Q15052 160-222, looked up)
chain: SHQLIVKARFNFKQTNEDELSVCKGDIIYVTRVEEGGWWEGTLNGRTGWFPSNYVREIKSSER
notes: α-PIX, human, SH3 domain, residues 160-222; Cloned into pGEX-4T-2
B3: GST-hBin2-CT (C-terminal region of human Bin2, amino acids 237-565) (domain or fragment, UniProt Q9UBW5 237-565, looked up)
chain: KLEKQHSNKVFVVKGLSSSSRRSLVISPPVRTATVSSPLTSPTSPSTLSLKSESESVSATEDLAPDAAQGEDNSEIKELLEEEEIEKEGSEASSSEEDEPLPACNGPAQAQPSPTTERAKSQEEVLPSSTTPSPGGALSPSGQPSSSATEVVLRTRTASEGSEQPKKRASIQRTSAPPSRPPPPRATASPRPSSGNIPSSPTASGGGSPTSPRASLGTGTASPRTSLEVSPNPEPPEKPVRTPEAKENENIHNQNPEELCTSPTLMTSQVASEPGEAKKMEDKEKDNKLISANSSEGQDQLQVSMVPENNNLTAPEPQEEVSTSENPQL
notes: Cloned into Nde1/Not1 sites of pGEX-4T-2; also called GST-Bin2-CT; BCT; source: E. coli DH5α, purified (glutathione sepharose, eluted with glutathione, dialysed)
B4: Human Bin2 N-BAR domain (1-238) (domain or fragment, UniProt Q9UBW5 1-238, looked up)
chain: MAEGKAGGAAGLFAKQVQKKFSRAQEKVLQKLGKAVETKDERFEQSASNFYQQQAEGHKLYKDLKNFLSAVKVMHESSKRVSETLQEIYSSEWDGHEELKAIVWNNDLLWEDYEEKLADQAVRTMEIYVAQFSEIKERIAKRGRKLVDYDSARHHLEAVQNAKKKDEAKTAKAEEEFNKAQTVFEDLNQELLEELPILYNSRIGCYVTIFQNISNLRDVFYREMSKLNHNLYEVMSKL
notes: Bridging integrator-2 (Bin2, BRAP1), human, residues 1-238; also called hBin2 N-BAR; source: E. coli DH5α, purified (glutathione sepharose, thrombin cleavage, HiTrap Q, gel filtration)
B5: Rat Bin2 N-BAR domain (1-238), wild type (domain or fragment, UniProt Q68FR2 1-238, looked up)
chain: MAEGKAGGAAGLFAKQMQKKFSRAQEKVLQKLGKTVETKDERFEQSASNFYQQQAEGHRLYKDLKNFLSAVKVMRESSKRVSETLQEIYNSDWDGHEDLKAIVGNNDLLWEDYEEKLADQALRTMENYVSQFSEVKERIAKRGRKLVDYDSARHHLEAVQNAKKKDEAKMAKAEEDFSKAQVVFEDLNQELLEELPVLYNSRIGCYVTVFQNISNLRDVFYREMSKLNHSLYEVMSKL
notes: Bridging integrator-2 (Bin2), rat, residues 1-238; also called WT rBin2 N-BAR
B6: Rat Bin2 N-BAR V81R,S214E mutant (domain or fragment, UniProt Q68FR2 1-238, looked up)
chain: B5 chain with V81R, S214E
notes: also called rBin2 N-BAR V81R,S214E; dimerization mutant

Legend:
[1] = molecular target: the molecule itself; test: crystal structure; hanging-drop crystals in 10% MPD, 7% PEG4000, 0.1 M sodium citrate pH 5.3, 20°C; MIRAS phasing; two molecules in the asymmetric unit
[2] = molecular target: B3; test: pull-down; 10 µg GST fusion or GST on glutathione beads with rising amounts of purified prey, 60 min; 20 mM HEPES pH 7.5, 150 mM NaCl, 1 mM DTT, 0.1% Triton X-100; SDS-PAGE, Coomassie; conditions: both partners purified
[3] = molecular target: T1, GST-hBin2-CT (C-terminal region of human Bin2, amino acids 237-565) (Homo sapiens (Human), UniProt Q9UBW5); test: GST pull-down, Coomassie
T1 chain: B3 chain

[4] = molecular target: T2, Full-length rat Endophilin A1 (rat, UniProt O35179 1-352); test: pull-down; 10 µg GST fusion or GST on glutathione beads with rising amounts of purified prey, 60 min; 20 mM HEPES pH 7.5, 150 mM NaCl, 1 mM DTT, 0.1% Triton X-100; SDS-PAGE, Coomassie; conditions: both partners purified
T2 construct: Endophilin A1, rat, full length; Cloned into pGEX-6P-2; also called rEndoA1; EndoA1
T2 sequence (O35179 whole entry, the tested form may be a part): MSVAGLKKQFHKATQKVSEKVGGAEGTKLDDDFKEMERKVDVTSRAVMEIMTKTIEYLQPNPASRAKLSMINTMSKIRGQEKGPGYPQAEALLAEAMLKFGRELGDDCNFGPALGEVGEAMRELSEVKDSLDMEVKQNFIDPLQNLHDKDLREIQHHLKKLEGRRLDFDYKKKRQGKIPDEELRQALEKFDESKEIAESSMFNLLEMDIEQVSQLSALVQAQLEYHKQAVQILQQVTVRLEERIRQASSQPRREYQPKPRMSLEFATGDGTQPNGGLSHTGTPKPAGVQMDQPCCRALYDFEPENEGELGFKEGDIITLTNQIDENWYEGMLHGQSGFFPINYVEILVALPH

[5] = molecular target: the molecule itself; test: AUC; equilibrium sedimentation, 20°C, 20,000, 30,000 and 40,000 rpm; 20 mM Tris, 200 mM NaCl, 0.1 mM DTT; dimer to monomers
[6] = molecular target: the molecule itself; test: SEC; gel filtration profiles of WT rBin2 N-BAR against the V81R,S214E mutant, with molecular weight standards

Binder: B1
- binding result [1]: binds

Binder: B2
- binding result [2]: binds
- binding result [3]: binds

Binder: B3
- binding result [4]: binds

Binder: B4
- Kd [5]: 7 µM

Binder: B5
- binding result [6]: binds

Binder: B6
- binding result [6]: binds
